Data set [1] addresses T1, STF-HD L107M/L110M/L130M (STF_3M-HD) (Medicago truncatula, UniProt G0ZGT3 85-190, L107M;L110M;L130M).
T1 sequence: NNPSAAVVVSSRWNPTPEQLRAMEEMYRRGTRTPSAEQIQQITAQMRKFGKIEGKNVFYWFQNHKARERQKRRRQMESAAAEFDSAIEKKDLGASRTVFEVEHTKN
In words: X-ray crystallography (SAD); SeMet protein; PAGE EMSA: 10 mM Tris-HCl pH 7.5, 100 mM KCl, 1 mM DTT, 2.5% glycerol, 5 ng/ul poly(dI-dC), 0.05% NP-40, 0.05 ug/ul protein, 5 fmol/ul DNA, room temperature 30. The conditions noted are these: protein: recombinant, tags: 6xHis-MBP removed by TEV, chain copies: 4, blunt. (In general: In EMSA bound probe runs differently from free probe, usually more slowly.)

Data set [2] deals with T2, STF-HD WT (Medicago truncatula, UniProt G0ZGT3 85-190).
T2 sequence: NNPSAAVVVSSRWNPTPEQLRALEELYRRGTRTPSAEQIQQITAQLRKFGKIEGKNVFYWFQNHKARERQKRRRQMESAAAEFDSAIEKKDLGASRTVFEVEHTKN
Kind of data set: X-ray crystallography (2.1 A); PAGE EMSA: 10 mM Tris-HCl pH 7.5, 100 mM KCl, 1 mM DTT, 2.5% glycerol, 5 ng/ul poly(dI-dC), 0.05% NP-40, 0.05 ug/ul protein, 5 fmol/ul DNA, room temperature 30. The conditions noted are these: protein: recombinant; tags: 6xHis-MBP removed by TEV; chain copies: 4; blunt.

Data set [3] addresses T2, STF-HD WT. Kind of data set: EMSA (agarose); stable complex at 1:4 DNA:protein; PAGE EMSA: 10 mM Tris-HCl pH 7.5, 100 mM KCl, 1 mM DTT, 2.5% glycerol, 5 ng/ul poly(dI-dC), 0.05% NP-40, 0.05 ug/ul protein, 5 fmol/ul DNA, room temperature 30. The conditions noted are these: protein: recombinant; tags: 6xHis-MBP removed by TEV; chain copies: 4; label: 5' 6-FAM; blunt.
Data set [4] deals with T3, His-MBP-STF85-190 R96A (Medicago truncatula, UniProt G0ZGT3 85-190, R96A).
T3 sequence: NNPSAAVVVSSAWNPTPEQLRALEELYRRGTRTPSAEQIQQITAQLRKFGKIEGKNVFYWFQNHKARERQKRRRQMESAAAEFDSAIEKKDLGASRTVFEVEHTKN
In words: EMSA; PAGE EMSA: 10 mM Tris-HCl pH 7.5, 100 mM KCl, 1 mM DTT, 2.5% glycerol, 5 ng/ul poly(dI-dC), 0.05% NP-40, 0.05 ug/ul protein, 5 fmol/ul DNA, room temperature 30. Conditions: protein: recombinant; tags: N-terminal 6xHis-MBP; label: 3' biotin; blunt.

Data set [5] concerns the target T4, His-MBP-STF85-190 R113Q (Medicago truncatula, UniProt G0ZGT3 85-190, R113Q).
T4 sequence: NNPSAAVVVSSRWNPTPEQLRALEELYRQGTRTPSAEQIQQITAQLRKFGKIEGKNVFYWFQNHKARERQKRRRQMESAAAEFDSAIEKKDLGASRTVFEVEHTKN
Kind of data set: EMSA; not affected; PAGE EMSA: 10 mM Tris-HCl pH 7.5, 100 mM KCl, 1 mM DTT, 2.5% glycerol, 5 ng/ul poly(dI-dC), 0.05% NP-40, 0.05 ug/ul protein, 5 fmol/ul DNA, room temperature 30. Conditions: protein: recombinant; tags: N-terminal 6xHis-MBP; label: 3' biotin; blunt.

Data set [6] has as its target T5, His-MBP-STF85-190 R151A (Medicago truncatula, UniProt G0ZGT3 85-190, R151A).
T5 sequence: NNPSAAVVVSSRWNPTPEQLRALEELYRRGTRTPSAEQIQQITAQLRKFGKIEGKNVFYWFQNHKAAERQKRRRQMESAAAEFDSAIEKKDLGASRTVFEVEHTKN
Kind of data set: EMSA; binding retained; PAGE EMSA: 10 mM Tris-HCl pH 7.5, 100 mM KCl, 1 mM DTT, 2.5% glycerol, 5 ng/ul poly(dI-dC), 0.05% NP-40, 0.05 ug/ul protein, 5 fmol/ul DNA, room temperature 30. Conditions: protein: recombinant; tags: N-terminal 6xHis-MBP; label: 3' biotin; blunt.

For data set [7], the target named is T6, STF-HD F167A/I171A (Medicago truncatula, UniProt G0ZGT3 85-190, F167A;I171A).
T6 sequence: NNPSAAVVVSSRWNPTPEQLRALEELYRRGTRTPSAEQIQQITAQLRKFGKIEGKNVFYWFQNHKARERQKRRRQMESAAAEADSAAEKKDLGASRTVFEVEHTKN
Kind of data set: fluorescence polarization; no significant decrease vs WT; value only in figure; PAGE EMSA: 10 mM Tris-HCl pH 7.5, 100 mM KCl, 1 mM DTT, 2.5% glycerol, 5 ng/ul poly(dI-dC), 0.05% NP-40, 0.05 ug/ul protein, 5 fmol/ul DNA, room temperature 30. Conditions: protein: recombinant; tags: 6xHis-MBP removed by TEV; label: 5' 6-FAM; blunt. Background: In fluorescence polarisation assays a small probe gives low polarisation when free and higher when bound to something large.

The target of data set [8] is T7, STF-HD S169E (Medicago truncatula, UniProt G0ZGT3 85-190, S169E).
T7 sequence: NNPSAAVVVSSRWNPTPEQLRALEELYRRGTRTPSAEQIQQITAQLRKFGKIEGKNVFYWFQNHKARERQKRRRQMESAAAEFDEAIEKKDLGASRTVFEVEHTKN
Described as above. The conditions noted are these: protein: recombinant; tags: 6xHis-MBP removed by TEV; label: 5' 6-FAM; blunt.

B1: MtLOB39 22 bp (crystal) (dsDNA)
DNA 1: GCAAATTAATGATTTATTCAAG
DNA 2: CTTGAATAAATCATTAATTTGC
As for B1, the binding result in data set [1] and in data set [2] was “binds” each time.

B2: MtAS2 22 bp FAM (dsDNA)
DNA 1: TGGATTTAATAATGAAGTGACA
DNA 2: TGTCACTTCATTATTAAATCCA
With B2, in data set [3], the binding result was “binds”.

B3: MtAS2 22 bp biotin (dsDNA)
DNA 1: TGGATTTAATAATGAAGTGACA
DNA 2: TGTCACTTCATTATTAAATCCA
Consider B3, for which the figures for the binding result in data set [4] and in data set [5] were “no binding” and “binds”, respectively.

B4: TAAT probe (TAAT motifs) (dsDNA)
DNA 1: GCAAATTAATTATTTATTAAAG
DNA 2: CTTTAATAAATAATTAATTTGC
Take B4: the binding result in data set [6] is recorded as “binds”.

B5: MtLOB39 22 bp FAM (dsDNA)
DNA 1: GCAAATTAATGATTTATTCAAG
DNA 2: CTTGAATAAATCATTAATTTGC
In the case of B5, the binding result in data set [7], in data set [8] and in data set [3] was “binds” each time.

Source of the values: paper PMC8329861, “Structure of the unique tetrameric STENOFOLIA homeodomain bound with target promoter DNA”.
